Assays:
Assay in all cases: pull-down; GST::LIC::6xHis (50 pmol) with 50 or 250 pmol adaptor and glutathione agarose, 1 h at 4°C, 150 μL of 50 mM HEPES, 100 mM NaCl, 5 mM DTT, pH 7.5, 0.1% Tween 20; Coomassie staining and immunoblot against Strep-tag II
Conditions in all cases: both partners purified
[1] = target: T1, BICD2(2–422)::Strep-tag II (human, UniProt Q8TD16 2-422)
T1 construct: human bicaudal D homolog 2 (BICD2), N-terminal region, residues 2-422; also called bicaudal D homolog 2; source: E. coli BL21, purified (Ni-NTA, TEV cleavage, Strep-Tactin; dialysis or SEC); not shown: 6xHis::MBP, N-terminal, cleaved; Strep-tag II (after linker GSGSGR), C-terminal, kept
T1 sequence (Q8TD16 2-422): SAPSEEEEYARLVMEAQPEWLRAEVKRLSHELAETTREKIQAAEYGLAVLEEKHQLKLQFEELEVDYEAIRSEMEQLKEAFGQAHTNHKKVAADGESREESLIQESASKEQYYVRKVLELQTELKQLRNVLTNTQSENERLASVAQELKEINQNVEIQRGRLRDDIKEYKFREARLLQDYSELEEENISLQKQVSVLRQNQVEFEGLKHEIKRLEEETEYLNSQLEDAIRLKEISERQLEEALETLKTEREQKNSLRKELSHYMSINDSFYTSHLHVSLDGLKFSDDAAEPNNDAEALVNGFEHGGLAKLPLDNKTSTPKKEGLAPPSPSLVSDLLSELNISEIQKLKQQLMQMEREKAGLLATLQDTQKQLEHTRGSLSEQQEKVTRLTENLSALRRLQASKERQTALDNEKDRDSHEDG

[2] = target: T2, RILP(1–401)::Strep-tag II (human, UniProt Q96NA2 1-401)
T2 construct: also called RILP::Strep-tag II; source: Sf21 insect cells (baculovirus), purified (Strep-Tactin Sepharose); not shown: Strep-tag II (after linker GSGSGR), C-terminal, kept
T2 sequence (looked up): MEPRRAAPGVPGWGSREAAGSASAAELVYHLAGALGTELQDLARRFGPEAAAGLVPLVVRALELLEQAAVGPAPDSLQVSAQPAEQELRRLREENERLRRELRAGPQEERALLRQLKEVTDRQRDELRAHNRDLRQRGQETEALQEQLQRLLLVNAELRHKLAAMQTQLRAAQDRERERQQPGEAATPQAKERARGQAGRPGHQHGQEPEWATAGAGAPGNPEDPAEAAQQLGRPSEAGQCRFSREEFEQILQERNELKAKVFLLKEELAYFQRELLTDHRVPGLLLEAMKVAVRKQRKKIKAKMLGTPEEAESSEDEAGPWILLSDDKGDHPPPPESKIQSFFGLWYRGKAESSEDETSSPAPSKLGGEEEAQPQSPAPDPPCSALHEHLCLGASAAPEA

[3] = target: T3, RAB11FIP3(2–756)::Strep-tag II (human, UniProt O75154 2-756)
T3 construct: source: E. coli BL21, purified (Ni-NTA, TEV cleavage, Strep-Tactin; dialysis or SEC); not shown: 6xHis::MBP, N-terminal, cleaved; Strep-tag II (after linker GSGSGR), C-terminal, kept
T3 sequence (looked up): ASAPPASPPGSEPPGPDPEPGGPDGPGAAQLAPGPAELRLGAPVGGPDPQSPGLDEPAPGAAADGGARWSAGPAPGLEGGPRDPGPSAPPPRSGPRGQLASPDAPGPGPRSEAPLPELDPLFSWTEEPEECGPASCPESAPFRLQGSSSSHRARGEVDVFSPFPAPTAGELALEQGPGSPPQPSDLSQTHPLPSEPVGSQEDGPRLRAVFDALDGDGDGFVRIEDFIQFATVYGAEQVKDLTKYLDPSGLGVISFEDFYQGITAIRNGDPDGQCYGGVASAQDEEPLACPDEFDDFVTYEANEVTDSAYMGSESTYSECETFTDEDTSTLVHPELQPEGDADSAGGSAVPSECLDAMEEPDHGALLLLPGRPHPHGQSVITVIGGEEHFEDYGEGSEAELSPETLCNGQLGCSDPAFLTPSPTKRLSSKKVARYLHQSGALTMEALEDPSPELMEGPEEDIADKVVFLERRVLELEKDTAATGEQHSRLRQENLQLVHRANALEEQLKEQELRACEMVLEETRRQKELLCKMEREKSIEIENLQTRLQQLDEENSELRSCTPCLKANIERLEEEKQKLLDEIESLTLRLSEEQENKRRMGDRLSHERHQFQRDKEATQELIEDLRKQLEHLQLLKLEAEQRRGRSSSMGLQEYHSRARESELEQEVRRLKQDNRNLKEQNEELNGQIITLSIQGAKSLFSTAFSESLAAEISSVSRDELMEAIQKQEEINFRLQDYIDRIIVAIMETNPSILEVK

Measured: binding result

B1: GST::LIC1(414–471)::6xHis (domain or fragment, human)
chain: WSSNVASVSPIPAGSKKIDPNMKAGATSEGVLANFFNSLLSKKTGSPGGPGVSGGSPAG
notes: single N-terminal tryptophan added in the construct; human dynein light intermediate chain 1 (DYNC1LI1), residues 414-471; source: E. coli BL21, purified (glutathione agarose, Ni-NTA; dialysis or SEC); not shown: GST, N-terminal, kept; 6xHis (after linker GSGSG), C-terminal, kept
binds: all assays above

B2: GST::LIC1(402–471)::6xHis (domain or fragment, human)
chain: WPGGSPRTPNRSVSSNVASVSPIPAGSKKIDPNMKAGATSEGVLANFFNSLLSKKTGSPGGPGVSGGSPAG
notes: single N-terminal tryptophan added in the construct; human dynein light intermediate chain 1 (DYNC1LI1), residues 402-471; source: E. coli BL21, purified (glutathione agarose, Ni-NTA; dialysis or SEC); not shown: GST, N-terminal, kept; 6xHis (after linker GSGSG), C-terminal, kept
binds: all assays above

B3: GST::LIC2(375–492)::6xHis (domain or fragment, human)
chain: WATPTRASESPARGPSGSPRTQGRGGPASVPSSSPGTSVKKPDPNIKNNAASEGVLASFFNSLLSKKTGSPGSPGAGGVQSTAKKSGQKTVLSNVQEELDRMTRKPDSMVTNSSTENEA
notes: single N-terminal tryptophan added in the construct; also called LIC2-C; source: E. coli BL21, purified (glutathione agarose, Ni-NTA; dialysis or SEC); not shown: GST, N-terminal, kept; 6xHis (after linker GSGSG), C-terminal, kept
binds: all assays above

B4: GST::LIC2(375–450)::6xHis (domain or fragment, human)
chain: WATPTRASESPARGPSGSPRTQGRGGPASVPSSSPGTSVKKPDPNIKNNAASEGVLASFFNSLLSKKTGSPGSPGAG
notes: single N-terminal tryptophan added in the construct; source: E. coli BL21, purified (glutathione agarose, Ni-NTA; dialysis or SEC); not shown: GST, N-terminal, kept; 6xHis (after linker GSGSG), C-terminal, kept
binds: all assays above
